Measurements: IntAct's records for PubMed 24751834

B1: Type VI secretion system spike protein VgrG3 (Vibrio cholerae), Q9KN42 (parent)
chain: MARLQFQLKVDGLEDESLVVRGFEGQESLSDSVWRCEPCYGFRYQVDLASALSNLTAEQFVDQTAHLTILRDGQVVQQINGIVRQLSKGDTGHRHTFYSLTLVPALERLSLRSNSRIFQQQSVPEIISILLQEMGIEDYAFALKRECAQREFCVQYRETDLQFLHRIAAEEGLVYSHLHEAQKHTLLFTDSSDSQPKLAKPVPYNALAGGEINLPYVVDLQFKTTAQVSHTELKDYSFKKPAYGFTQRTQGKDIAYQQPNYEHFDAPGRYKDDANGKAFSQIRLEYLRRDALLADAKSDEPLLLAGVRFDLQDHLDHAMNRDWLVVQANHQGTQPQALQEEGGSGATTYSNQLKLIPAHITWRARPCAKPQVDGPMIATVVGPQGEEIYCDNFGRVKVHFPWDRYSSSNEKSSCWVRVAQEWAGSQYGSMAIPRVGHEVIVSFLNGDPDQPIITGRTYHATNTAPYALPDHKTKTVLRTETHQGQGYNELSFEDQAGSEQILLHAQKDWDALIEHDHTEVIRHDQHLTVDNDRFTRIQRNQHLTVEGEVRSKIALDSSHEVGASLQHKVGQRIAVEAGKEISLKSGAKIVVEAGAELTLKAGGSFVKVDAGGVHLVGPAINLNAGGSAGSGSAYGGQLAAAPRMLAQAKPVAELVQPDIAASMQSGAARVIDVASLPTMMPSSANNTANDEPVAEEKTPERILKSDLLKPSDELEKLAKRQASAYRQGNHSDEVKLLQEALIKLGFDLGKAGADGDFGSKTKTAIEQFQKSYQPSHQTHPSYSIGAVDGIVGKGTLLALDEALMDGWVYENNIYQIWPLGKTSEKYESAGRGPGVISTGNGDYGGASYGCYQMSSNLGVVQKYIQSSKFKEFFSGLNPATKEFNVVWQDIASRYPQEFREEQHQFIKRTHYDIQIGHLRGKGLLFEHNRAAVHDLIWSTSVQFGGRTNLIFNALNGQNMESMTDKDIIILVQDYKLVNTERLFKSSPSWWSDLKKRAVSEKKALLELEIDGLEVDIK
partner: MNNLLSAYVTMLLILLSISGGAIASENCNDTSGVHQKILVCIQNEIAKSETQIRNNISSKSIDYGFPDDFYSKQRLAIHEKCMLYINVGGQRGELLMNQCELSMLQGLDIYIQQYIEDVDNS

Variants of: B1
Conditions: with tsiv3_vibch tsiV3, Q9KN41

Variant | effect of a mutation on the interaction
Y826A | decreasing interaction

Variants of: B1
Conditions: with tsiv3_vibch tsiV3, Q9KN41
Remark: another data set of the same source

Variant | effect of a mutation on the interaction
D842A | decreasing interaction

Variants of: B1
Conditions: with tsiv3_vibch tsiV3, Q9KN41
Remark: another data set of the same source

Variant | effect of a mutation on the interaction
V941A | decreasing interaction

Variants of: B1
Conditions: with tsiv3_vibch tsiV3, Q9KN41
Remark: another data set of the same source

Variant | effect of a mutation on the interaction
Q942A | decreasing interaction

Variants of: B1
Conditions: with tsiv3_vibch tsiV3, Q9KN41
Remark: another data set of the same source

Variant | effect of a mutation on the interaction
L982A | decreasing interaction

Variants of: B1
Conditions: with tsiv3_vibch tsiV3, Q9KN41
Remark: another data set of the same source

Variant | effect of a mutation on the interaction
R996A | decreasing interaction
